The RNAGym collection of RNA variant scans (doi:10.1073/pnas.2313332121)

B1: TPR t1 (parent)
chain: GACCAAUCUGCCCUCAGAGCUCGAGAACAUCUUCGGAUGCAGAGGAGGCAGGCUUCGGUGGCGCGAUAGCGCCAACGUCCUCAACCUCCAAUGCAUCCCACCACAUGAUGAUGCCUGAAGAGCCUUGGUUUUUUG

Variants of: B1
Assay: polymerase ribozyme fitness, log enrichment relative to wild type (log ratio); higher = more active; in vitro selection for triplet polymerase activity
Method in brief: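 A single round of triplicate in vitro selection, including frozen incubation at −7 °C, was applied to PCR-built, transcribed mutant libraries of each subunit of a heterodimeric triplet polymerase ribozyme. Illumina sequencing of input and output libraries retained genotypes with ≥10 input reads and ≥1 read per output. Fitness is the base-2 logarithm of genotype enrichment divided by wild-type enrichment, from inverse-variance-weighted replicate averages.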

Variant | polymerase ribozyme fitness (log ratio)
C13U U132C | 0.0693
C15A G35C U87A | -5.96
U14A C79G A83U | -5.11
A16C G117U A121C | -4.48
C15G A24G C89G C124G | -6.51
C15A C49U G61A | -1.73
C15U G110C | -4.52
U14G A46U A74G C101A | -3.18
C15U G19A C89A | -5.15
C15G G61C | -2.41
C15U C40A G60C | -2.3
C15U C79U | -1.97
C15G A50C | -2.38
U14A C22U A37U C79U A83C A84C | -5.43
U14A C72G | -2.35
C15A A66G | -2.15
C13U G113A | 0.0113
A16C C97U A100U | -3.88
C13U G45A G71C | -0.496
U14G G47C C70U C85G G117A | -7.02
U14G A74U | -2.04
U14G A24G G61A U78C | -4.74
U14C G61U A75C A105C | -3.69
U14G G44C G71U U78A | -3.39

Variant | polymerase ribozyme fitness (log ratio)
U14C A37U | -1.93
U14G A68G U112G | -5.15
C13U G61C A100U A111G G113A | -5.12
U14G G45C G110U | -3.81
C15G C86U G110A A118U | -3.91
U14G C73A A90U | -3.66
C15U A74U A83C A100U U116A | -5.53
U14A G44U G117U A118U | -4.78
C15A C104U G110A | -2.85
C15U G17C C72A A121C | -1.65
C15U G63U | -3.19
C15A C80U A84U | -2.49
U14C U21C G61A C101U | -3.37
C15U G60A C73U U78A G135U | -1.76
C15U A18G U59A G93C C104U | -5.54
A16G A27C C72U C123U | -3.64
U14G U87G G127C | -4.35
U14C U54G G93C C104U U116G | -3.88
C15A U32C | -1.58
U14C G113A | -3.18
C13U G47U G135U | -2.07
C13U G51A U55A C79G C89A | -5.95
U14G G61U | -1.11
C15A G117A | -2.72

Variant | polymerase ribozyme fitness (log ratio)
C15U A91C | -2.75
U14A A24G A119G | -4.72
C13U G51C C85A C124G | -3.2
U14A G63C C82U U112G | -1.65
C15U G69C | -2.64
C15A A74G G113A | -4.02
C13U U14C G48U | -3.25
C15G C20U C73U U78G A111G | -6.71
C13U G69U C94U | 0.248
C15G G61C A90G U96A | -6.02
C15A A84G C94U | -2.76
C15U G42U U87G C88A C101U G113U | -5.85
C15U G39C | -1.93
C15U G39A | -3.08
C15U C20A U81G U112G | -6.15
C15U A91G A105G U112A | -3.8
C15U A43C G69A C123U C124A | -5.69
A16C U106A | -2.82
C15U G39C A66U G69C A75U | -3.53
C15U G69U C102A | -1.95
A16C A41U G52C C64G C82G G110C | -6.92
C13U G69C | -1.26
C15A C40U U87C G93C | -3.02
C15A G127A | -3.63

Variant | polymerase ribozyme fitness (log ratio)
C15G C72U A100U | -3.69
U14C G77A | -2.6
C13U G58C A84G | -0.641
U14G A90C | -3.4
C15A A43U C49U A91U | -3.45
C15G G63C A84C | -4.12
U14A U81A | -4.19
A16G A27G U32C A50G | -4.47
C15A C53A C72G A103C G113A G117A | -6.79
A16C C82G G120C | -1.47
U14G G61U C89A C99G G113C C115U | -6.86
A16G C62U | -1.57
U14C U112G G113U | -5.07
C15A A84U | -1.41
C15U A16C | -2.44
U14C U54G | -1.76
U14G G48U C94A C101U G120C | -2.13
A16C U38G C70A | -4.31
U14C G42C U92G | -4.23
A16C C53U C86G | -2.99
C15U A26G G63C G71A C102U U109G U112A U129A | -3.42
C15U A43U G69U C88U A91C G120C | 0.39
A16C C82G | -3.22
C15U U54G | -1.23

Variant | polymerase ribozyme fitness (log ratio)
U14C C49U A50U U55A | -6.51
C13U G48U | -1.37
C15A C70U C114U | -5.04
C15U G58C C72A C102G G107U A121C | -6.59
A16C G60C A111G | -1.81
U14G C72U | -1.52
U14G C72G | -2.44
U14G C72A | -2.6
C15U U21A U96G A118U | -0.0472
C15U C28U G44U C62U U87C U106C | -5.37
C13U G45A | -0.438
C15U A83C A91G A111G | -2.96
C15G G25C A41U U109A | -5.74
U14C G36U A41U | -5.76
A16C C49A A74C C88A U116C | -3.06
C15U C72U | -1.62
C15U U55G G69A | -3.22
U14G C40A G71U A121G G127U | 0.306
U14C A46U A74G | -1.32
C15G G17C | -4.24
C15U G51U G60A | -5.07
C15U C22A U54A C124A | -3.89
C13U U81A | -0.11
C15U U38G G45A G60C A74U | -4.34

Variant | polymerase ribozyme fitness (log ratio)
A16G C28U U54G A121G | -0.979
U14C G17C C20A A24U A43C C85U A111G | -6.11
A16C C40U G52A U59G U112A | -1.53
U14G U21C | -2.74
U14A C114U | -5.22
A16G A84U A90C | -2.9
C15A U133C | -1.06
C15U C88G A103C C115G | -6.98
U14G G47C C85G G117A | -5.3
C15U G60A | -0.966
C15U U130A | -1.54
C15U G127A U129A | -4.11
C15A G36A A50C G65A G69U | -7.38
C15G G120A | -1.53
C15U G58A | -1.84
C15G A16G C49U C56U G117U | -1.99
C15U C124U | 0.776
A16C A50U | -4.64
C15G G25U A37U G69U G120C | -7.24
U14G A18U G61A C115A U129A U132A | -3.2
C13U G42U G61A A90U A95U | -1.48
C13U U14G A16U G93U G120C | -3.43
U14A C40U C64U A91U | -4.67
C15A U92A U132A | -4.82

Variant | polymerase ribozyme fitness (log ratio)
C13U G60A A100U C101U C104U A121C | 1.93
U14C G61A G110C | -5.14
C15A A37G G45U C72A G93U U112C G122C C123G U125A | -3.59
C15G C86U U116G | -2.95
C15A G71A A91G U112A G113C | -5.47
C15G C56G G57C C72G C104U U131C | -4.86
U14C A18G | -4.78
C15A G71U | -2.58
A16C G71C U126C U131A | -4.45
C15A G69U G77U G122A C123A | -1.41
U14G G128A | -3.77
C15U C62U U112G | -0.275
C13U G52C C62U C94G A100U G113A | -3
C13U G71U U78G U133G | -0.454
A16C G52A C70U C73U | -3.8
C15A G39A G69A U87G U112G | -4.24
C13U G42U G48A U129A | -2.82
U14G G48A A50G C72A G120C A121C | -1.94
C15U A16U G23A G63A G93C C114G | -7.78
U14A G71A U130A | -3.52
C15U C76A | -1.94
C13U U14G C80U C115A | -3.73
C15U C70G U78A C86G G127A | -5.32
